Data: US8158376B2, “Bisubstrate fluorescent probe binding to protein kinases” (University of Tartu, priority 2006, dated 2012)
Read-outs that look alike come from different tables or passages of the source.

What was measured:
Assay in all cases: Kinase selectivity panel
Format in all cases: biochemical
SRPK1 = SRPK1 (Homo sapiens, UniProt Q96SB4); settings: read-out: residual activity (%) SRPK1
Description: (§1) The panel of kinases included all 52 kinases available for testing.
(§2) The assay of protein kinases was performed at 30° C. as described previously [Davies et al., Biochem. J. 351 (2000) 95; Murray et al., Biochem. J. 384 (2004) 477].

P70 S6K = P70 S6K (Homo sapiens, UniProt P23443); settings: ATP 20 μM
Description: as §1, §2

MAPKAP-K1b/rsk-2 = MAPKAP-K1b/rsk-2 (Homo sapiens, UniProt P51812); settings: ATP 50 μM
Description: as §1, §2

eEF2K = biological target: T1, eEF2K (Homo sapiens, UniProt O00418); settings: read-out: residual activity (%) eEF2K
T1 sequence (O00418 1-725): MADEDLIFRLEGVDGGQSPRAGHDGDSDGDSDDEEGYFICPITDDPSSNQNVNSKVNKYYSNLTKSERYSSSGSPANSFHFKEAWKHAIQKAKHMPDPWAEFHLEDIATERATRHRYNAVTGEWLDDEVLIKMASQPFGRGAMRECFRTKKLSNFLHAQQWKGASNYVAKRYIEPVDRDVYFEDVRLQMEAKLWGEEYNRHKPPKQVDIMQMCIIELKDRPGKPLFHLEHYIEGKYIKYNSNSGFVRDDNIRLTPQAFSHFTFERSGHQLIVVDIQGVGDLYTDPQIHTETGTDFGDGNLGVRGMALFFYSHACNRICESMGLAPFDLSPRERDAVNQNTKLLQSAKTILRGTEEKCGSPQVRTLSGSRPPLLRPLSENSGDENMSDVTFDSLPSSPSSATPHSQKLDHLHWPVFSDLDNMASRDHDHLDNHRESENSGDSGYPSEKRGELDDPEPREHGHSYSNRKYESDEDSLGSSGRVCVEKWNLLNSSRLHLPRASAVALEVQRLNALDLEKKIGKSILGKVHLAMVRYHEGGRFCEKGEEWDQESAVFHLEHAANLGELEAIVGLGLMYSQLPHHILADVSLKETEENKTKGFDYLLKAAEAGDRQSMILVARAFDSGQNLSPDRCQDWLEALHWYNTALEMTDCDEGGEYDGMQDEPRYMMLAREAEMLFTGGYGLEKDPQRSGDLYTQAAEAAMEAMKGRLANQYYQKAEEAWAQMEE
Description: as §1, §2

MAPKAP-K2 = MAPKAP-K2 (Homo sapiens, UniProt P49137); settings: read-out: residual activity (%) MAPKAP-K2
Description: as §1, §2

PDK1 = biological target: T2, PDK1 (Homo sapiens, UniProt O15530); settings: read-out: residual activity (%) PDK1
T2 sequence (O15530 1-556): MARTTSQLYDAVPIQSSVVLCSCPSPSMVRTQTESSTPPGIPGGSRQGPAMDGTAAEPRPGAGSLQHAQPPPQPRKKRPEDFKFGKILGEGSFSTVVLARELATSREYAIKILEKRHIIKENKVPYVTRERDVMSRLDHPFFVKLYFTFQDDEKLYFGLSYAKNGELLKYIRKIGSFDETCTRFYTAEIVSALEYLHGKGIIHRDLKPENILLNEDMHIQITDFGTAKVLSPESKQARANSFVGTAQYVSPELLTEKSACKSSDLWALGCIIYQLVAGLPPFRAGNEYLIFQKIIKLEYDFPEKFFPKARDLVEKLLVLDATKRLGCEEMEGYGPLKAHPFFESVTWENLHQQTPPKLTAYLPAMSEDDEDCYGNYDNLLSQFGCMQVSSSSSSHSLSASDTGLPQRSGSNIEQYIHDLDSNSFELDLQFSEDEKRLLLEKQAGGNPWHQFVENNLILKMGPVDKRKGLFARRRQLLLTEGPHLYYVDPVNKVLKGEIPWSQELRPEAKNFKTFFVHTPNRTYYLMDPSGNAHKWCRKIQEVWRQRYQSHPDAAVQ
Description: as §1, §2

MNK1 = MNK1 (Homo sapiens, UniProt Q9BUB5); settings: read-out: residual activity (%) MNK1
Description: as §1, §2

smMLCK = smMLCK (Homo sapiens, UniProt Q15746); settings: read-out: residual activity (%) smMLCK
Description: as §1, §2

NEK7 = NEK7 (Homo sapiens, UniProt Q8TDX7); settings: read-out: residual activity (%) NEK7
Description: as §1, §2

NEK2a = biological target: T3, NEK2a (Homo sapiens, UniProt P51955); settings: read-out: residual activity (%) NEK2a
T3 sequence (P51955 1-445): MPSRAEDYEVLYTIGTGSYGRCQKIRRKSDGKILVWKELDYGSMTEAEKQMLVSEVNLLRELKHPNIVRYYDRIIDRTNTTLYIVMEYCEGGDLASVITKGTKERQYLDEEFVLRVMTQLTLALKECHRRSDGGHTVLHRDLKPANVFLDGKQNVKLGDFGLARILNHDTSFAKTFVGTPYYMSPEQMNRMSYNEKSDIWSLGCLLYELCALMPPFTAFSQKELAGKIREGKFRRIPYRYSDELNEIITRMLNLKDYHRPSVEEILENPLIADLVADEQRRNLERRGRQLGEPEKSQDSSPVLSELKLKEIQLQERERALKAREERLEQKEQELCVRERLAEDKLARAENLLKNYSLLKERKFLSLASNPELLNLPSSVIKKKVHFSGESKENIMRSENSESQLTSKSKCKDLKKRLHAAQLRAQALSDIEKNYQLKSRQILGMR
Description: as §1, §2

PKCa = PKCa (Homo sapiens, UniProt P17252); settings: read-out: residual activity (%) PKCa
Description: as §1, §2

P70 S6K, sequence (P23443 whole entry): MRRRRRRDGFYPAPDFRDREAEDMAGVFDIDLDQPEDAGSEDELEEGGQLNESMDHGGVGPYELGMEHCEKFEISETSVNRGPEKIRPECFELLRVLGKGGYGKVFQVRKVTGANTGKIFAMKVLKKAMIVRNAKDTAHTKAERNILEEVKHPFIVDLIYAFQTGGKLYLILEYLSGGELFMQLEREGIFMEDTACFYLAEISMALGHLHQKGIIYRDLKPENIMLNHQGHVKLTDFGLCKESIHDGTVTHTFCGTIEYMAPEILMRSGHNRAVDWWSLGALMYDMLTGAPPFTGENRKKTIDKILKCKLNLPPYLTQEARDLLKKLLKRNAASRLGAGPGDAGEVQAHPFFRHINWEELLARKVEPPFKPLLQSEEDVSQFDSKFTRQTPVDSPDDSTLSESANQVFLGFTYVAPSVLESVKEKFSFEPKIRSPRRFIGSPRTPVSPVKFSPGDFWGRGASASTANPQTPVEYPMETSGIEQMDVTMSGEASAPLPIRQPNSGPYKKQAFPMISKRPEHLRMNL
MAPKAP-K1b/rsk-2, sequence (P51812 whole entry): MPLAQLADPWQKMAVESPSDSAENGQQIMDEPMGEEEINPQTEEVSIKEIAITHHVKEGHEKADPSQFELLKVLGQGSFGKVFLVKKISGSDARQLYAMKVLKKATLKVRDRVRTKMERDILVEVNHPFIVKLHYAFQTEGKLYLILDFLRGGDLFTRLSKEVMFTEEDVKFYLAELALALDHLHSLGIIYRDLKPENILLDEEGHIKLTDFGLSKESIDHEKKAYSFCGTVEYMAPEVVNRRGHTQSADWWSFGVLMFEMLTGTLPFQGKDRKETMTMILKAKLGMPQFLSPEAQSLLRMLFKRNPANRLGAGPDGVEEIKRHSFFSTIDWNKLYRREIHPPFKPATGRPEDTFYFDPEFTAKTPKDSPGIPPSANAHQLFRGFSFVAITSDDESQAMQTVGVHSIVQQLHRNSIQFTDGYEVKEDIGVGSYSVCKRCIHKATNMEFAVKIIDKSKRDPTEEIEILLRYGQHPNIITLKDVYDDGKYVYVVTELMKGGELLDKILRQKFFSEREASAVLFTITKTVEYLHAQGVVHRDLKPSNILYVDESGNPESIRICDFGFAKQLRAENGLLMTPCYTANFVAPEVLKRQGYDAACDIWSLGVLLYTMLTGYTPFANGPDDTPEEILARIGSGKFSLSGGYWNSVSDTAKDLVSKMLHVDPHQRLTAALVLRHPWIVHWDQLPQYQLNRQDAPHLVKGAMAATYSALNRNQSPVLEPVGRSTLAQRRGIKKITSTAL
MNK1, sequence (Q9BUB5 whole entry, species assumed): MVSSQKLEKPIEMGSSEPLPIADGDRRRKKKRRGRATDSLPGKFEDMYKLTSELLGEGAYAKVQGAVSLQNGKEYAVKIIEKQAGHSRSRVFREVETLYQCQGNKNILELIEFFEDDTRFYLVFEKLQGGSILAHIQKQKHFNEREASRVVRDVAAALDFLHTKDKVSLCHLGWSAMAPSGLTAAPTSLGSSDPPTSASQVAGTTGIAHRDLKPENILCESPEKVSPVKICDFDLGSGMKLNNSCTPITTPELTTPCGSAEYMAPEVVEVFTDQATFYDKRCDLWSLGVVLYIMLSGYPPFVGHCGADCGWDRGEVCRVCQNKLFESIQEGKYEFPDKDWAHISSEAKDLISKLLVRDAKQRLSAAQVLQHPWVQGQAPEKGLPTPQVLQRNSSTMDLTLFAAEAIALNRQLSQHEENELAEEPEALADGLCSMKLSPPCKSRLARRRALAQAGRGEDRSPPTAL
MAPKAP-K2, sequence (P49137 whole entry, species assumed): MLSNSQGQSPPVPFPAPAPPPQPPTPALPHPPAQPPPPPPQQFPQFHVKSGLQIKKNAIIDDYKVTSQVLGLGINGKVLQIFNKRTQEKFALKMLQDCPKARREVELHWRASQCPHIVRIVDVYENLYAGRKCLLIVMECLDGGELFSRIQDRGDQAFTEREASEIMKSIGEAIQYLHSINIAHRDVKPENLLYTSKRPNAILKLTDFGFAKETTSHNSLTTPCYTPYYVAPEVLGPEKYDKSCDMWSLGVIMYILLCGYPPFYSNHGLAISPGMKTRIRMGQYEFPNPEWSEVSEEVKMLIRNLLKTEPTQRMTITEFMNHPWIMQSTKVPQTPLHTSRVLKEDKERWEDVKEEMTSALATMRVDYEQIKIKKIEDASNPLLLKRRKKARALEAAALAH
NEK7, sequence (Q8TDX7 whole entry, species assumed): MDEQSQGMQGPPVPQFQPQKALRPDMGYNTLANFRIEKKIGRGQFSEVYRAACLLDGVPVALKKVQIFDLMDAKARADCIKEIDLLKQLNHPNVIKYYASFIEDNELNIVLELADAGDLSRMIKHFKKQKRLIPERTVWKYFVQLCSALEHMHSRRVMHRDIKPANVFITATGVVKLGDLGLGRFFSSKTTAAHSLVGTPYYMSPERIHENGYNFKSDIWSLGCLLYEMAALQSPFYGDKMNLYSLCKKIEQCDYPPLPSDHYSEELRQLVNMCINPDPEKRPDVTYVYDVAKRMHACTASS
SRPK1, sequence (Q96SB4 whole entry, species assumed): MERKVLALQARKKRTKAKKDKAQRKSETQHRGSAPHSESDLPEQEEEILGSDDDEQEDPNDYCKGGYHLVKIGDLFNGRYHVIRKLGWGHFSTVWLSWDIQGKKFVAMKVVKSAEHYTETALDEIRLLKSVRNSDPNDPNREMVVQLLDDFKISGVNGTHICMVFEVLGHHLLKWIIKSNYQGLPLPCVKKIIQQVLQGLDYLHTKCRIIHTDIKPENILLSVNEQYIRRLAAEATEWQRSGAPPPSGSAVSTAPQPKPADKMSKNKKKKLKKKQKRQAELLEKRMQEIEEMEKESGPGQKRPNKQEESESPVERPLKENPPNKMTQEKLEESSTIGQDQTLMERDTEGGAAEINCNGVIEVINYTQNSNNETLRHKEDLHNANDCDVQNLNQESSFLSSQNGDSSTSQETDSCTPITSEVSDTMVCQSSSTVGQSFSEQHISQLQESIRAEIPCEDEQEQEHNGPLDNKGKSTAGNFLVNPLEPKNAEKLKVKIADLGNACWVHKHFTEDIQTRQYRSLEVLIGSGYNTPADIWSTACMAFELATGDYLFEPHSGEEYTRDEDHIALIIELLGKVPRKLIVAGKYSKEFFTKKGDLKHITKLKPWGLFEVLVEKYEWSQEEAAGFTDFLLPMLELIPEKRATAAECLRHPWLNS

## N=C(N)NCCC[C@@H](NC(=O)[C@@H](CCCNC(=N)N)NC(=O)[C@@H](CCCNC(=N)N)NC(=O)[C@@H](CCCNC(=N)N)NC(=O)[C@@H](CCCNC(=N)N)NC(=O)[C@@H](CCCNC(=N)N)NC(=O)CCCCCNC(=O)[C@H]1O[C@@H](n2cnc3c(N)ncnc32)[C@H](O)[C@@H]1O)C(N)=O [Compound 5, AdcAhx(D-Arg)6-NH2]
SRPK1
  remaining activity at 1 µM: 100%
P70 S6K; inhibitor 1 μM
  residual activity (%) P70 S6K: 7 (±2) %
P70 S6K; read-out: residual activity (%) P70 S6K, inhibitor 1 μM
  remaining activity at 1 µM: 7 to 28%
MAPKAP-K1b/rsk-2; inhibitor 1 μM
  residual activity (%) MAPKAP-K1b/rsk-2: 12 (±0) %
MAPKAP-K1b/rsk-2; read-out: residual activity (%) MAPKAP-K1b/rsk-2, inhibitor 1 μM
  remaining activity at 1 µM: 7 to 28%
eEF2K
  remaining activity at 1 µM: 92%
MAPKAP-K2
  remaining activity at 1 µM: 85%
PDK1
  remaining activity at 1 µM: 62%
MNK1
  remaining activity at 1 µM: 102%
smMLCK
  remaining activity at 1 µM: 72%
NEK7
  remaining activity at 1 µM: 58%
NEK2a
  remaining activity at 1 µM: 82%
PKCa
  remaining activity at 1 µM: 31%

## N=C(N)NCCC[C@@H](NC(=O)[C@@H](CCCNC(=N)N)NC(=O)[C@@H](CCCNC(=N)N)NC(=O)[C@@H](CCCNC(=N)N)NC(=O)[C@@H](CCCNC(=N)N)NC(=O)[C@@H](CCCNC(=N)N)NC(=O)CCCCCNCCNS(=O)(=O)c1cccc2cnccc12)C(N)=O [Compound 26, H9-Hex(D-Arg)6-NH2]
SRPK1; inhibitor 1 μM, ATP 50 μM
  remaining activity at 1 µM: 99%
P70 S6K; inhibitor 1 μM, read-out: residual activity (%) P70 S6K
  remaining activity at 1 µM: 2%
MAPKAP-K1b/rsk-2; inhibitor 1 μM, read-out: residual activity (%) MAPKAP-K1b/rsk-2
  remaining activity at 1 µM: 2%
eEF2K; inhibitor 1 μM, ATP 5 μM
  remaining activity at 1 µM: 91%
MAPKAP-K2; inhibitor 1 μM, ATP 20 μM
  remaining activity at 1 µM: 80%
PDK1; inhibitor 1 μM, ATP 20 μM
  remaining activity at 1 µM: 56%
MNK1; inhibitor 1 μM, ATP 50 μM
  remaining activity at 1 µM: 68%
smMLCK; inhibitor 1 μM, ATP 50 μM
  remaining activity at 1 µM: 90%
NEK7; inhibitor 1 μM, ATP 20 μM
  remaining activity at 1 µM: 56%
NEK2a; inhibitor 1 μM, ATP 50 μM
  remaining activity at 1 µM: 98%
PKCa; inhibitor 1 μM, ATP 20 μM
  remaining activity at 1 µM: 15%
